Test results reported in paper PMC6525264.

How the values were obtained:
[1] = Western blot of media, sAPPβ (1A9); conditions: glycan lost; control: empty vector (Hyg) cell line
[2] = flow cytometry, cell surface APP, non-permeabilised cells; conditions: glycan lost; control: APPWT cell line

Row | Substance | other: proteolytic processing [1] | localisation_or_trafficking [2]
1 | β-Amyloid precursor protein (APP695): APPN467K | decreases | decreases
2 | β-Amyloid precursor protein (APP695): APPN496K | decreases | decreases
